Molecular target: Oct-2 Q221A (UniProt P09086 1-479, Q221A)
Assay: EMSA; EMSA with in vitro-translated protein and 32P-labelled annealed ds oligonucleotide; buffer, salt, pH and temperature not given in the material
Details: protein: ivt; label: 32P (T4 PNK, 5' end); blunt

Chain of Oct-2 Q221A (P09086 whole entry Q221A): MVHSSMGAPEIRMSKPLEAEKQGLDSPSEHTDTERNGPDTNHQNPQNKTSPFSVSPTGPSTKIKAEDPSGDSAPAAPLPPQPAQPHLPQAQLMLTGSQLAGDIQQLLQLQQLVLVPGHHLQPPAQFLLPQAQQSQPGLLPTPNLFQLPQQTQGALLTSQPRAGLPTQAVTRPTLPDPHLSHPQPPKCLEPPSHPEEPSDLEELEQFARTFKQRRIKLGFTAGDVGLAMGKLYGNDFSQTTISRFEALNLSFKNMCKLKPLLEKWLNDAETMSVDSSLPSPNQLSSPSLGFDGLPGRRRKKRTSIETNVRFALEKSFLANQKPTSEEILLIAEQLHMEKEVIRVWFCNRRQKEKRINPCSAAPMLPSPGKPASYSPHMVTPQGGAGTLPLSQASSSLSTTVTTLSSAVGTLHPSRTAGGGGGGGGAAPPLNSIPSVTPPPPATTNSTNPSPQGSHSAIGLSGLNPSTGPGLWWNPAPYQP

B1: Oct probe (dsDNA)
DNA 1: CAGTGATGCAAATCTTGT
DNA 2: ACAAGATTTGCATCACTG
  binding result: no binding

— publication PMC3276558, “The B-Cell Specific Transcription Factor, Oct-2, Promotes Epstein-Barr Virus Latency by Inhibiting the Viral Immediate-Early Protein, BZLF1”
